Data on six molecules can be found in patent US20200277397A1 (Genmab, published 2020).

Numbering of substitutions follows the chain as printed. Names may count otherwise.

In experiment [1] the target is T1, full length human 5T4 (human, UniProt Q13641 32-420).
T1 construct: Uniprot Q13641; Used here also for endogenous 5T4 on the human tumour cell lines
T1 sequence: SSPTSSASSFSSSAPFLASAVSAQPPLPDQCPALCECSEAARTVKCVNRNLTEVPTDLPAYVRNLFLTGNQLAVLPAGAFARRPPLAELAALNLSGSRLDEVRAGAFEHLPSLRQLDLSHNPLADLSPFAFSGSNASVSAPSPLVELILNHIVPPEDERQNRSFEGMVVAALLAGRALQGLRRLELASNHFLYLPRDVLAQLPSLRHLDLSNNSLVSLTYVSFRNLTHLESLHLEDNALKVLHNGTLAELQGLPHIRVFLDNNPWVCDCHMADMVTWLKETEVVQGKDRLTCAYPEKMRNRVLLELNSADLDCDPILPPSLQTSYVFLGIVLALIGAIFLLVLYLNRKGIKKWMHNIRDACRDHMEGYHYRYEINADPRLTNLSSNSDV
Kind of experiment: flow cytometry, HEK-293 cells transfected with full length human 5T4 (left panel), FITC anti-human IgG F(ab')2, MFI FITC. On the technique in general: Flow cytometry measures light scatter and fluorescence of single cells or particles in a stream.
Procedure: (§1) Binding of monovalent and bivalent 5T4 antibodies was analysed using HEK-293 cells transiently transfected with full length human (left panels) or cynomolgus monkey 5T4 (right panels). Cells were incubated with increasing concentrations of antibodies, as indicated. After secondary labelling with FITC conjugated goat-anti-human IgG F(ab′)2, binding was analysed by flow cytometry. […] Data are presented as mean fluorescence intensity (MFI) values of two technical replicates±SD.
(§2) Experiments were performed in technical duplicate. After washing twice in staining buffer, cells were incubated in 50 μL secondary antibody at 4° C. for 30 min. […] Cells were washed twice in staining buffer, re-suspended in 30 μL staining buffer and analyzed on an iQue Screener (Intellicyt Corporation, USA). Binding curves were analyzed using non-linear regression (sigmoidal dose-response with variable slope) using GraphPad Prism V7.02 software (Graph Pad Software, San Diego, Calif., USA).

The target of experiment [2] is T2, full length cynomolgus monkey 5T4 (cynomolgus monkey, UniProt Q4R8Y9 35-420).
T2 construct: Uniprot Q4R8Y9; also called cynomolgus monkey 5T4 on HEK-293 cells
T2 sequence: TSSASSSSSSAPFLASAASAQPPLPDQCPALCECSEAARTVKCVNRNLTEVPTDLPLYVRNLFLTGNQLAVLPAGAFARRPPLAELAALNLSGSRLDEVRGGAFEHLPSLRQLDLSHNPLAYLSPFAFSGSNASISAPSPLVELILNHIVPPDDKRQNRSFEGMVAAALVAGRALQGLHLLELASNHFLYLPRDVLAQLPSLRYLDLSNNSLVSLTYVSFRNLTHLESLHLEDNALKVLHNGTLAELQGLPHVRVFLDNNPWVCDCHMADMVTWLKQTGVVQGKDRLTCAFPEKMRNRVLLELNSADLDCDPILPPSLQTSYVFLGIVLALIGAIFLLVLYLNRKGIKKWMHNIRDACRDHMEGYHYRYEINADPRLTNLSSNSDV
Kind of experiment: flow cytometry, HEK-293 cells transfected with full length cynomolgus monkey 5T4 (right panel), FITC anti-human IgG F(ab')2, MFI FITC.
Procedure: as §1, §2

Experiment [3] concerns the target T2, full length cynomolgus monkey 5T4. The experiment in a line: flow cytometry, HEK-293 cells transfected with cynomolgus monkey 5T4 (right panel), PE anti-human IgG F(ab')2, MFI PE.
The target is the same in experiment [4]. The experiment is described as above. This is another data set of the same source.
Experiment [5] addresses T1, full length human 5T4. Kind of experiment: flow cytometry, MDA-MB-231 cells, PE anti-human IgG F(ab')2, MFI PE.
For experiment [6], the target named is T2, full length cynomolgus monkey 5T4. Kind of experiment: flow cytometry, HEK-293 cells transfected with cynomolgus monkey 5T4 (right panel), PE anti-human IgG F(ab')2, MFI PE. The source holds these as a separate data set.
For experiment [7], the target named is T1, full length human 5T4. The experiment in a line: flow cytometry, MDA-MB-231 cells, PE anti-human IgG F(ab')2, MFI PE. The source holds these as a separate data set.
Experiment [8] addresses T1, full length human 5T4. Kind of experiment: flow cytometry, HeLa cells, PE anti-human IgG F(ab')2, MFI PE.
The target of experiment [9] is T1, full length human 5T4. The experiment in a line: flow cytometry, HeLa cells (left panel), FITC anti-human IgG F(ab')2, MFI FITC.
Procedure: (§3) After washing twice in staining buffer, cells were incubated in 50 μL secondary antibody at 4° C. for 30 min. […] Next, cells were washed twice in staining buffer, re-suspended in 120 μL staining buffer and analyzed on a BD LSRFortessa FACS (BD Biosciences, USA). Binding curves were analyzed using non-linear regression (sigmoidal dose-response with variable slope) using GraphPad Prism V7.02 software (GraphPad Software, San Diego, Calif., USA).
Experiment [10] has as its target T1, full length human 5T4. Kind of experiment: flow cytometry, HeLa cells, PE anti-human IgG F(ab')2, MFI PE. This is another data set of the same source.
For experiment [11], the target named is T2, full length cynomolgus monkey 5T4. The experiment in a line: flow cytometry, HEK-293 cells transfected with full length cynomolgus monkey 5T4 (right panel), FITC anti-human IgG F(ab')2, MFI FITC. This is another data set of the same source.
Procedure: as §1, §2
Experiment [12] addresses T1, full length human 5T4. The experiment in a line: flow cytometry, MDA-MB-231 cells (right panel), FITC anti-human IgG F(ab')2, MFI FITC.
Procedure: as §3
In experiment [13] the target is T1, full length human 5T4. Kind of experiment: flow cytometry, HEK-293 cells transfected with human 5T4 (left panel), PE anti-human IgG F(ab')2, MFI PE.
Experiment [14] deals with T1, full length human 5T4. Described as above. This is another data set of the same source.
In experiment [15] the target is T1, full length human 5T4. The experiment in a line: flow cytometry, MDA-MB-231 cells (right panel), FITC anti-human IgG F(ab')2, MFI FITC. This is another data set of the same source.
Procedure: as §3
The target of experiment [16] is T1, full length human 5T4. The experiment in a line: flow cytometry, HEK-293 cells transfected with full length human 5T4 (left panel), FITC anti-human IgG F(ab')2, MFI FITC. The source holds these as a separate data set.
Procedure: as §1, §2
Experiment [17] addresses T1, full length human 5T4. Kind of experiment: flow cytometry, MDA-MB-231 cells, PE anti-human IgG F(ab')2, MFI PE. This is another data set of the same source.
For experiment [18], the target named is T2, full length cynomolgus monkey 5T4. The experiment in a line: flow cytometry, HEK-293 cells transfected with full length cynomolgus monkey 5T4 (right panel), FITC anti-human IgG F(ab')2, MFI FITC. This is another data set of the same source.
Procedure: as §1, §2
For experiment [19] the target is unchanged. Kind of experiment: flow cytometry, HEK-293 cells transfected with cynomolgus monkey 5T4 (right panel), PE anti-human IgG F(ab')2, MFI PE. This is another data set of the same source.
Experiment [20] deals with T1, full length human 5T4. Kind of experiment: flow cytometry, HeLa cells, PE anti-human IgG F(ab')2, MFI PE. The source holds these as a separate data set.
Experiment [21] addresses T1, full length human 5T4. The experiment in a line: flow cytometry, HeLa cells (left panel), FITC anti-human IgG F(ab')2, MFI FITC. The source holds these as a separate data set.
Procedure: as §3

B1: bsIgG1-huCD3-H101G-FEALx5T4-H8-FEAR (bispecific antibody)
heavy 1: not shown
VL 1: not shown
heavy 2: EVQLQQSGPDLVKPGASVKISCKASGYSFTGYYMHWVKQSHGKSLEWIGRINPNNGVTLYNQKFKDKAILTVDKSSTTAYMELRSLTSEDSAVYYCARSTMITNYVMDYWGQVTSVTVSSASTKGPSVFPLAPSSKSTSGGTAALGCLVKDYFPEPVTVSWNSGALTSGVHTFPAVLQSSGLYSLSSVVTVPSSSLGTQTYICNVNHKPSNTKVDKRVEPKSCDKTHTCPPCPAPEFEGGPSVFLFPPKPKDTLMISRTPEVTCVVVAVSHEDPEVKFNWYVDGVEVHNAKTKPREEQYNSTYRVVSVLTVLHQDWLNGKEYKCKVSNKALPAPIEKTISKAKGQPREPQVYTLPPSREEMTKNQVSLTCLVKGFYPSDIAVEWESNGQPENNYKTTPPVLDSDGSFFLYSRLTVDKSRWQQGNVFSCSVMHEALHNHYTQKSLSLSPGK
VL 2: SIVMTQTPTFLLVSAGDRVTITCKASQSVSNDVAWYQQKPGQSPTLLISYTSSRYAGVPDRFIGSGYGTDFTFTISTLQAEDLAVYFCQQDYNSPPTFGGGTKLEIK
The term EC50 (read off the curve) denotes the concentration giving half of the maximal effect. Turning to B1, the binding result in experiment [1] is recorded as “binds”. Besides, the concentration giving a half-maximal response (EC50 (read off the curve)) in experiment [2] was ~0.1 µg/mL.

B2: IgG1-5T4-076-FEAR (antibody, V domains shown)
VH: QVQLVQSGAEVKKPGASVKVSCKASGYTFTSYGISWVRQAPGQGLEWMGWISAYNGNTNYAQKLQGRVTMTTDTSTRTAYMELRSLRSDDTAVYYCARDPGYFDWLYGDYWGQGTLVTVSS
VL: AIQLTQSPSSLSASVGDRVTITCRASQGISSALAWYQQKPGKAPKLLIYDASSLESGVPSRFSGSGSGTDFTLTISSLQPEDFATYYCQQFNSYPRTFGQGTKVEIKR
notes: Human IgG1 FEAR, kappa (as for m12)
Regarding B2, in [3], the half-maximal effective concentration (EC50 (read off the curve)) was ~0.01 µg/mL.

B3: IgG1-5T4-207-FEAR (antibody, V domains shown)
VH: QVQLQQWGAGLLKPSETLSLTCAVYGGSFSGYYWTWIRQPPGKGLEWIGEIDHSESTNYNPSLKSRVTISVDTSKNQFSLKLSSVTAADTAVYYCAGWFGELYHYYYGMDVWGQGTTVTVSS
VL: EIVLTQSPATLSLSPGERATLSCRASQSVSSYLAWYQQKPGQAPRLLIYDASNRATGIPARFSGSGSGTDFTLTISSLEPEDFAVYYCQQRSNWPLTFGGGTKVEIKR
notes: as for B2
Take B3: the concentration for a half-maximal effect (EC50 (read off the curve)) is ~0.1 µg/mL in experiment [4] and ~0.02 µg/mL in experiment [5].

B4: bsIgG1-huCD3-H101G-FEALx5T4-106-FEAR (bispecific antibody)
heavy 1: not shown
VL: not shown
heavy 2: EVQLVQSGAEVKKPGESLKISCKGSGYRFTSYWIGWVRQMPGKGLEWMGIIYPGDSDARYSPSFQGQVTISADKSISTAYLQWSSLKASDTGMYYCARSVLFDYWGQGTLVTVSSASTKGPSVFPLAPSSKSTSGGTAALGCLVKDYFPEPVTVSWNSGALTSGVHTFPAVLQSSGLYSLSSVVTVPSSSLGTQTYICNVNHKPSNTKVDKRVEPKSCDKTHTCPPCPAPEFEGGPSVFLFPPKPKDTLMISRTPEVTCVVVAVSHEDPEVKFNWYVDGVEVHNAKTKPREEQYNSTYRVVSVLTVLHQDWLNGKEYKCKVSNKALPAPIEKTISKAKGQPREPQVYTLPPSREEMTKNQVSLTCLVKGFYPSDIAVEWESNGQPENNYKTTPPVLDSDGSFFLYSRLTVDKSRWQQGNVFSCSVMHEALHNHYTQKSLSLSPGK
light: AIQLTQSPSSLSASVGDRVTITCRASQGISSALAWYQQKPGKAPKLLIYDVSNLESGVPSRFSGSGSGTDFTLTISSLQPEDFATYYCQQFNSYPHTFGQGTKLEIKRTVAAPSVFIFPPSDEQLKSGTASVVCLLNNFYPREAKVQWKVDNALQSGNSQESVTEQDSKDSTYSLSSTLTLSKADYEKHKVYACEVTHQGLSSPVTKSFNRGEC
On to B4, for which, in [6], the binding result is “binds”. Moreover, the “EC50 (read off the curve)” value in experiment [7] and in experiment [8] was ~0.1 µg/mL throughout.

B5: bsIgG1-huCD3-H101G-FEALx5T4-207-FEAR (bispecific antibody)
heavy 1: not shown
VL: not shown
heavy 2: QVQLQQWGAGLLKPSETLSLTCAVYGGSFSGYYWTWIRQPPGKGLEWIGEIDHSESTNYNPSLKSRVTISVDTSKNQFSLKLSSVTAADTAVYYCAGWFGELYHYYYGMDVWGQGTTVTVSSASTKGPSVFPLAPSSKSTSGGTAALGCLVKDYFPEPVTVSWNSGALTSGVHTFPAVLQSSGLYSLSSVVTVPSSSLGTQTYICNVNHKPSNTKVDKRVEPKSCDKTHTCPPCPAPEFEGGPSVFLFPPKPKDTLMISRTPEVTCVVVAVSHEDPEVKFNWYVDGVEVHNAKTKPREEQYNSTYRVVSVLTVLHQDWLNGKEYKCKVSNKALPAPIEKTISKAKGQPREPQVYTLPPSREEMTKNQVSLTCLVKGFYPSDIAVEWESNGQPENNYKTTPPVLDSDGSFFLYSRLTVDKSRWQQGNVFSCSVMHEALHNHYTQKSLSLSPGK
light: not shown
As for B5, the “EC50 (read off the curve)” value in [9] was ~0.05 µg/mL; in experiment [4] it was ~0.03 µg/mL; in [10] it was ~0.04 µg/mL; in experiment [11] it was ~0.1 µg/mL; in experiment [12], ~0.1 µg/mL; in experiment [13], ~0.05 µg/mL. Further, the concentration giving a half-maximal response (EC50 (read off the curve)) in experiment [5] is ~0.04 µg/mL.

B6: bsIgG1-huCD3-H101G-FEALx5T4-226-FEAR (bispecific antibody)
heavy 1: not shown
VL: not shown
heavy 2: B5 heavy 2 with T35S, E55G, G97A, Y103W, H104D
light: not shown
With B6, the “EC50 (read off the curve)” value is ~0.09 µg/mL in [14]; ~0.09 µg/mL in experiment [15]; ~0.2 µg/mL in experiment [16]; ~0.04 µg/mL in experiment [17]; ~0.1 µg/mL in [18]; ~0.06 µg/mL in experiment [19]. The “EC50 (read off the curve)” value was ~0.04 µg/mL in experiment [20] and ~0.02 µg/mL in [21].
